We go through one substance from article PMC3793860, “A role for the vesicle-associated tubulin binding protein ARL6 (BBS3) in flagellum extension in Trypanosoma brucei” (Biochimica et Biophysica Acta, 2012).

The target of the test is freshly polymerised microtubules (Microtubule Binding Protein Spin-Down Assay kit, Cytoskeleton, Inc.). The test is described as follows: co-sedimentation; microtubule spin-down: 2.5 μg protein, 30 min at room temperature with freshly polymerised microtubules (equivalent of 2 μM tubulin dimer), 20 μM Taxol, 10 mM MgCl2 and 4 mM GDP or GTP; 100,000 g for 40 min through a 60% glycerol cushion; supernatant and pellet on Coomassie gel.
freshly polymerised microtubules (Microtubule Binding Protein Spin-Down Assay kit, Cytoskeleton, Inc.), sequence (P68363 whole entry, chain 1 of 2): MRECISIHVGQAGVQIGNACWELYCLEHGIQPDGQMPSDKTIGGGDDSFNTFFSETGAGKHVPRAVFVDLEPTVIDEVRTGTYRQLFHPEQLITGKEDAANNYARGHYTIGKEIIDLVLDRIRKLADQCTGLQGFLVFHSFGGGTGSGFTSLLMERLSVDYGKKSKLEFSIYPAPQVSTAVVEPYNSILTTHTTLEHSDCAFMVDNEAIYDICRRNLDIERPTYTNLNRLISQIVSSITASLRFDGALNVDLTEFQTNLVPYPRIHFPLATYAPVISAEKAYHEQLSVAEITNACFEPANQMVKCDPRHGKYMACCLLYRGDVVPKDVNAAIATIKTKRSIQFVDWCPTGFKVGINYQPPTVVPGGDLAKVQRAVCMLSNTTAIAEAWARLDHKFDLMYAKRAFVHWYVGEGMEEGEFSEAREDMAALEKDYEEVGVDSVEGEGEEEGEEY
freshly polymerised microtubules (Microtubule Binding Protein Spin-Down Assay kit, Cytoskeleton, Inc.), sequence (A8K068 whole entry, chain 2 of 2, further chain): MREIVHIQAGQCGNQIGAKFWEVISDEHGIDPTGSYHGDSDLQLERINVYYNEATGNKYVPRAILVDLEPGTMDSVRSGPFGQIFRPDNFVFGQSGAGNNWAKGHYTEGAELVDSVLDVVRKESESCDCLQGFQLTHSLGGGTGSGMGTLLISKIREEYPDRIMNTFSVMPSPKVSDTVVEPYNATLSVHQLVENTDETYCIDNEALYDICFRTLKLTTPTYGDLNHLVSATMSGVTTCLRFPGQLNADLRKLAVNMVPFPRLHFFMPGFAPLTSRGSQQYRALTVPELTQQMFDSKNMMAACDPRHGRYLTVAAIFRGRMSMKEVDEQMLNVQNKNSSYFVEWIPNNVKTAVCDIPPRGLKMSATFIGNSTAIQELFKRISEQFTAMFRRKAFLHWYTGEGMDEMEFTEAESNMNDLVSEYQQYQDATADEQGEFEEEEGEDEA

For the substance “N-terminal His-tagged recombinant T. brucei ARL6 (natural protein)”, the percent of the protein in the insoluble fraction with microtubules, with GDP worked out at 36% and the percent of the protein in the insoluble fraction with microtubules, with GTP is 20%.
